# According to patent US20030166567:
# Key:
# [1] = system: 10-mer (SEQ ID NO:13) cleavage domain peptide
# [2] = system: 19-mer (SEQ ID NO:11) cleavage domain peptide
# [3] = system: 9-mer (SEQ ID NO:12) cleavage domain peptide
# Chain of Active MMP-9 enzyme (chain, as listed by the source): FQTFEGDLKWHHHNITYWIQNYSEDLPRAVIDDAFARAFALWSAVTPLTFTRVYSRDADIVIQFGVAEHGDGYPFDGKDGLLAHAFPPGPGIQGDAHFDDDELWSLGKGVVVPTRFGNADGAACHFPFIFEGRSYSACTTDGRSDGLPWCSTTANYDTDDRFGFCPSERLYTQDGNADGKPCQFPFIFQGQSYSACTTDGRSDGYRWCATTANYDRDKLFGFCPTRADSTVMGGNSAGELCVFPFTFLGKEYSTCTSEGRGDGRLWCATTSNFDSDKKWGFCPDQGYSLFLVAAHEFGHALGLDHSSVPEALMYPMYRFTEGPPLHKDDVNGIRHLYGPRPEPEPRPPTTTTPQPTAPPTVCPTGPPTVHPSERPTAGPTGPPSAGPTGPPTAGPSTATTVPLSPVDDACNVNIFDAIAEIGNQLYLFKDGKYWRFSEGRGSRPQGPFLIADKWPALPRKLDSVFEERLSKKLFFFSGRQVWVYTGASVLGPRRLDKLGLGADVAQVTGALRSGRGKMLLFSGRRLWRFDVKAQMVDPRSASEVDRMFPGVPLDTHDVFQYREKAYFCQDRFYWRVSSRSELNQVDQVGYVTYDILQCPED
substance,measurement,setting,value
Active MMP-9 enzyme,extended time course of MMP-9 catalyzed hydrolysis of collagen,[1],The 10-mer (SEQ ID NO:13) peptide is less effective at preventing the destruction of collagen at long time points (FIG. 9) than is the 9-mer (SEQ ID NO:12) peptide (FIG. 10)
same,extended time course of MMP-9 catalyzed hydrolysis of collagen,[2],the 19-mer (SEQ ID NO:11) effectively inhibits the MMP-9 catalyzed hydrolysis of collagen to beyond 1000 minutes
same,extended time course of MMP-9 catalyzed hydrolysis of collagen,[3],The 10-mer (SEQ ID NO:13) peptide is less effective at preventing the destruction of collagen at long time points (FIG. 9) than is the 9-mer (SEQ ID NO:12) peptide (FIG. 10)
